Results from paper PMC5908803, “Cryo-EM structure of the RC-LH core complex from an early branching photosynthetic prokaryote” (Nature Communications, 2018).

Target: the molecule itself
Experiment: cryo-EM structure; single-particle cryo-EM of the rcRC-LH complex purified whole from native membranes, 3 mg/mL in 0.02% DDM, 150 mM NaCl, 50 mM Tris-HCl pH 8.0; 4.1 Å (subunit X helix seen after low-pass filter to 6 Å)

B1: LHαβ heterodimer of Roseiflexus castenholzii (complex)
chain 1: MKDRPFEFRTSVVVSTLLGLVMALLIHFVVLSSGAFNWLRAP
chain 2: MTDKPQNDLVPDQWKPLFNNAQWLVHDIVVKTIYGGLIIAVIAHVLCWAWTPWIR
notes: α subunit of the LH antenna, Roseiflexus castenholzii, encoded by puf A; β subunit of the LH antenna, Roseiflexus castenholzii, encoded by puf B; Each heterodimer holds two B880, one B800 and one keto-γ-carotene; 15 of them form the open elliptical LH ring; also called LHαβ subunit
  stoichiometry N: 15
